{"source": "patent US9803013B2", "about": "“Biological materials and uses thereof” (BioInvent International AB, priority 2005, dated 2017)", "test_system": "MM cells", "assay": "FACS analysis of BI-505 epitope expression on patients' plasma cells", "type": "binding, human", "set-up": "key to BI-505 epitope expression Intensity: BI-505 negative cells (−) are B-cells from patient number 8; (+), (++) and (+++) corresponding to patient number 8, 7 and 10; (+), (++) and (+++) corresponding to patient number 8, 7 and 10; (+), (++) and (+++) corresponding to patient number 8, 7 and 10", "conditions": "for BI-505 epitope expression Intensity: FACS on MM cells", "excerpt": "(FIG. 16A) Analysis of myeloma cells in bone marrow from multiple myeloma patients by flow cytometry. Myeloma cells were gated based on expression of CD138, CD38, CD56 and CD45 according to international guidelines (Rawstron et al., 2008). Furthermore, intracellular staining was used to confirm monoclonal expression by K and A staining. B1-505 epitope expression was categorized as shown in the histogram (right position) with (+), (++) and (+++) corresponding to patient number 8, 7 and 10. BI-505 negative cells (−) are B-cells from patient number 8.\nIt was next evaluated the expression of the BI-505 epitope on bone marrow cells in patients with MM and related diseases (plasmacytoma, plasma cell leukemia, and light chain amyloidosis) by flow cytometry (FIG. 15 and Table 4). Myeloma cells were identified using fluorescent antibodies against surface antigens CD38, CD138, CD45 and CD56 (FIG. 16A) according to European Myeloma Network guidelines on multiparametric flow cytometry in MM (Rawstron et al., 2008) and confirming monoclonal MM cells with intracellular staining of λ and κ light chains. All MM patients expressed the BI-505 epitope on most (97±4%, mean±SD, patient n=22) myeloma cells (FIG. 15 and Table 4). The BI-505 epitope was generally very highly expressed on these cells, with median expression level 10 times higher than on normal B cells from the same patients. Similar results were obtained with a commercially available anti-ICAM-1 antibody (data not shown). Furthermore, the BI-505 epitope was highly expressed on myeloma cells in a patient in relapse who had received several different lines of therapy (FIG. 16B). Thus, ICAM-1 and the BI-505 epitope are strongly expressed on the surface of MM plasma cells.\nPlasma cell surface expression of ICAM-1 and the BI-505 epitope was analyzed by FACS. Bone marrow aspirates were obtained from 29 patients diagnosed with MM or related diseases at the Department of Hematology, Skånes University Hospital, Lund. All human samples were collected using protocols approved by the Ethics Committee of Skåne University Hospital, and informed consent was obtained from all patients.\nBone marrow aspirates from 29 patients diagnosed with MM or related diseases (plasmocytoma, plasma cell leukemia, or amyloid light chain amyloidosis) at the Department of Hematology, Skånes University Hospital, Lund were analyzed by flow cytometry using 4 cocktails of antibodies, each suitable for recognizing plasma cells (Figure S3) after informed consent and with the approval of the local ethical committee. Clinical data were obtained from patients' charts."}
{"molecule": "B11: fully human IgG1 antibody specific for ICAM-1; VH and VL sequences of FIG. 10 (SEQ ID NOs. 6 and 8) (antibody, listed as Homo sapiens, V domains shown) VH: EVQLLESGGGLVQPGGSLRLSCAASGFTFSNAWMSWVRQAPGKGLEWVAFIWYDGSNKYYADSVKGRFTISRDNSKNTLYLQMNSLRAEDTAVYYCARYSGWYFDYWGQGTLVTVSS VL: QSVLTQPPSASGTPGQRVTISCTGSSSNIGAGYDVHWYQQLPGTAPKLLIYDNNNRPSGVPDRFSGSKSGTSASLAISGLRSEDEADYYCQSYDSSLSAWLFGGGTKLTVLG", "values": [{"measurement": "myeloma cells expressing the BI-505 epitope", "setting": "all MM patients, mean±SD, patient n=22", "result": "97±4", "unit": "%"}, {"measurement": "BI-505 epitope expression Positive cells (%)", "setting": "patient 1, MM", "result": 98, "unit": "%"}, {"measurement": "BI-505 epitope expression Intensity", "setting": "patient 1, MM", "result": "+++"}, {"measurement": "BI-505 epitope expression Positive cells (%)", "setting": "patient 2, MM", "result": 97, "unit": "%"}, {"measurement": "BI-505 epitope expression Intensity", "setting": "patient 2, MM", "result": "+++"}, {"measurement": "BI-505 epitope expression Positive cells (%)", "setting": "patient 3, MM", "result": 100, "unit": "%"}, {"measurement": "BI-505 epitope expression Positive cells (%)", "setting": "patient 4, nsMM", "result": 100, "unit": "%"}, {"measurement": "BI-505 epitope expression Intensity", "setting": "patient 4, nsMM", "result": "+++"}, {"measurement": "BI-505 epitope expression Positive cells (%)", "setting": "patient 5, MM", "result": 100, "unit": "%"}, {"measurement": "BI-505 epitope expression Intensity", "setting": "patient 5, MM", "result": "++"}, {"measurement": "BI-505 epitope expression Positive cells (%)", "setting": "patient 6, MM", "result": 98, "unit": "%"}, {"measurement": "BI-505 epitope expression Intensity", "setting": "patient 6, MM", "result": "+++"}, {"measurement": "BI-505 epitope expression Positive cells (%)", "setting": "patient 7, MM", "result": 98, "unit": "%"}, {"measurement": "BI-505 epitope expression Intensity", "setting": "patient 7, MM", "result": "+++"}, {"measurement": "BI-505 epitope expression Positive cells (%)", "setting": "patient 8, MM", "result": 100, "unit": "%"}, {"measurement": "BI-505 epitope expression Intensity", "setting": "patient 8, MM", "result": "+++"}, {"measurement": "BI-505 epitope expression Positive cells (%)", "setting": "patient 9, MM", "result": 100, "unit": "%"}, {"measurement": "BI-505 epitope expression Intensity", "setting": "patient 9, MM", "result": "++"}, {"measurement": "BI-505 epitope expression Positive cells (%)", "setting": "patient 10, MM", "result": 95, "unit": "%"}, {"measurement": "BI-505 epitope expression Intensity", "setting": "patient 10, MM", "result": "+"}, {"measurement": "BI-505 epitope expression Positive cells (%)", "setting": "patient 11, MM", "result": 100, "unit": "%"}, {"measurement": "BI-505 epitope expression Intensity", "setting": "patient 11, MM", "result": "+++"}, {"measurement": "BI-505 epitope expression Positive cells (%)", "setting": "patient 12, nsMM", "result": 95, "unit": "%"}, {"measurement": "BI-505 epitope expression Positive cells (%)", "setting": "patient 13, MM", "result": 100, "unit": "%"}, {"measurement": "BI-505 epitope expression Intensity", "setting": "patient 13, MM", "result": "+++"}, {"measurement": "BI-505 epitope expression Positive cells (%)", "setting": "patient 14, MM", "result": 100, "unit": "%"}, {"measurement": "BI-505 epitope expression Intensity", "setting": "patient 14, MM", "result": "+++"}, {"measurement": "BI-505 epitope expression Positive cells (%)", "setting": "patient 15, MM", "result": 100, "unit": "%"}, {"measurement": "BI-505 epitope expression Intensity", "setting": "patient 15, MM", "result": "+++"}, {"measurement": "BI-505 epitope expression Positive cells (%)", "setting": "patient 16, MM", "result": 88, "unit": "%"}, {"measurement": "BI-505 epitope expression Intensity", "setting": "patient 16, MM", "result": "++"}, {"measurement": "BI-505 epitope expression Positive cells (%)", "setting": "patient 17, MM", "result": 100, "unit": "%"}, {"measurement": "BI-505 epitope expression Intensity", "setting": "patient 17, MM", "result": "+++"}, {"measurement": "BI-505 epitope expression Positive cells (%)", "setting": "patient 18, MM", "result": 100, "unit": "%"}, {"measurement": "BI-505 epitope expression Intensity", "setting": "patient 18, MM", "result": "+++"}, {"measurement": "BI-505 epitope expression Positive cells (%)", "setting": "patient 19:1, MM", "result": 93, "unit": "%"}, {"measurement": "BI-505 epitope expression Intensity", "setting": "patient 19:1, MM", "result": "+++"}, {"measurement": "BI-505 epitope expression Positive cells (%)", "setting": "patient 19:2, MM", "result": 95, "unit": "%"}, {"measurement": "BI-505 epitope expression Intensity", "setting": "patient 19:2, MM", "result": "+++"}, {"measurement": "BI-505 epitope expression Positive cells (%)", "setting": "patient 19:3, MM", "result": 91, "unit": "%"}, {"measurement": "BI-505 epitope expression Intensity", "setting": "patient 19:3, MM", "result": "+++"}, {"measurement": "BI-505 epitope expression Positive cells (%)", "setting": "patient 20, MM", "result": 100, "unit": "%"}, {"measurement": "BI-505 epitope expression Intensity", "setting": "patient 20, MM", "result": "+++"}, {"measurement": "BI-505 epitope expression Positive cells (%)", "setting": "patient 21, MM", "result": 93, "unit": "%"}, {"measurement": "BI-505 epitope expression Intensity", "setting": "patient 21, MM", "result": "+++"}, {"measurement": "BI-505 epitope expression Positive cells (%)", "setting": "patient 22, MM", "result": 86, "unit": "%"}, {"measurement": "BI-505 epitope expression Intensity", "setting": "patient 22, MM", "result": "+++"}, {"measurement": "BI-505 epitope expression Positive cells (%)", "setting": "patient 23, AL", "result": 97, "unit": "%"}, {"measurement": "BI-505 epitope expression Intensity", "setting": "patient 23, AL", "result": "++"}, {"measurement": "BI-505 epitope expression Positive cells (%)", "setting": "patient 24, AL", "result": 100, "unit": "%"}, {"measurement": "BI-505 epitope expression Intensity", "setting": "patient 24, AL", "result": "+++"}, {"measurement": "BI-505 epitope expression Positive cells (%)", "setting": "patient 25, LCDD/MM", "result": 98, "unit": "%"}, {"measurement": "BI-505 epitope expression Intensity", "setting": "patient 25, LCDD/MM", "result": "+++"}, {"measurement": "BI-505 epitope expression Positive cells (%)", "setting": "patient 26, PCL", "result": 76, "unit": "%"}, {"measurement": "BI-505 epitope expression Intensity", "setting": "patient 26, PCL", "result": "+++"}, {"measurement": "BI-505 epitope expression Positive cells (%)", "setting": "patient 27, PCL", "result": 77, "unit": "%"}, {"measurement": "BI-505 epitope expression Intensity", "setting": "patient 27, PCL", "result": "+"}, {"measurement": "BI-505 epitope expression Positive cells (%)", "setting": "patient 28, PC", "result": 93, "unit": "%"}, {"measurement": "BI-505 epitope expression Intensity", "setting": "patient 28, PC", "result": "+++"}, {"measurement": "BI-505 epitope expression Positive cells (%)", "setting": "patient 29, PC", "result": 100, "unit": "%"}, {"measurement": "BI-505 epitope expression Intensity", "setting": "patient 29, PC", "result": "+++"}, {"measurement": "increase of mean BI-505 expression in myeloma cells after first relapse", "setting": "patient, bone marrow number 2 versus diagnosis", "result": "two-fold"}]}
